The experiment addresses T1, nuclear translocation factor 2-like (NTF2L) domain of human G3BP1 (human, UniProt Q13283-1 1-138).
T1 construct: three extra residues Gly-Ala-Ser left at the N-terminus after TEV cleavage of the 6xHis tag; complete chains (1-138) are C, G, N and R; also called G3BP1-NTF2L domain; source: E. coli BL21 (DE3), purified (Ni-NTA, TEV cleavage, second Ni-NTA, SEC); not shown: His6, N-terminal, cleaved
Description: ITC; peptide injected into NTF2L in the cell, 20°C, 20 mM HEPES, 150 mM NaCl, pH 7.5. The note with it: both partners purified.

T1 sequence (Q13283 other isoform, or with tags, fused parts or gaps): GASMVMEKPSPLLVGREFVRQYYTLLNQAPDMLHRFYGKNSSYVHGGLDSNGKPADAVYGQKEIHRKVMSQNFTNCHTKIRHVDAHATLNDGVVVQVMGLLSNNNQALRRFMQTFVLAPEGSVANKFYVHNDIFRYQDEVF

B1: N-terminal region of CHIKV-43, 473ITFGDFNDGEIESLSSEL490 (motif 1 and α1) (peptide)
peptide: ITFGDFNDGEIESLSSEL
notes: also called N-terminus (motif 1 and α1) of CHIKV-43
As to B1, the affinity, expressed as Kd, was 3.4 ± 0.7 µM.

B2: C-terminal region of CHIKV-43, 491LTFGDFLPGEVDDLTDSD508 (motif 2 and α2) (peptide)
peptide: LTFGDFLPGEVDDLTDSD
notes: also called C-terminus (motif 2 and α2) of CHIKV-43
In turn, B2 displayed a Kd of 2.2 ± 0.5 µM.
Take ITFGDFNDGEIESLSSELLTFGDFLP [CHIKV-26 peptide (residues Ile473 to Pro498 of CHIKV nsP3, without the α2 region)]: the “fold reduction of binding affinity against CHIKV-43 with NTF2L” value is roughly 100 fold and the “stoichiometry N” value is 1 CHIKV-26 per NTF2L (1:1).

(Values after publication PMC12077208, “Cryo-EM reveals a double oligomeric ring scaffold of the CHIKV nsP3 peptide in complex with the NTF2L domain of host G3BP1” (mBio, 2025).)
